Results as given in PMC4351820.

Target: hSSB1 (SSB1, single-stranded DNA binding protein 1) (human, UniProt Q9BQ15 1-211)
Experiment: EMSA

Chain of hSSB1 (SSB1, single-stranded DNA binding protein 1) (Q9BQ15 whole entry): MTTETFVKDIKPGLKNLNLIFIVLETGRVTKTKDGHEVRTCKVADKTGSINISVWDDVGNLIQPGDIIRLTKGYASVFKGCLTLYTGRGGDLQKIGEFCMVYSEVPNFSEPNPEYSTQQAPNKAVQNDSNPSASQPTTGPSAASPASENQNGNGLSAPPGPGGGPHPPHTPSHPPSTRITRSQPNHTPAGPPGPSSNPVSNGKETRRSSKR

B1: G-rich telomeric strand (TTAGGG)5 (ssDNA)
DNA: TTAGGGTTAGGGTTAGGGTTAGGGTTAGGG
binding result: binds
